Assay [1] addresses human fibrinogen (human) (UniProt P02671).
Assay [2] deals with bovine fibrinogen (bovine).
Assay [3] deals with bovine thrombin (bovine) (UniProt P00735).
Assay [4] has the same target. The source holds these as a separate data set.
Assay [5] shares this target. This is another data set of the same source.

Consider three substances from patent US5354664.

Sequence of human urine derived thrombin-binding substance obtained using a recombinant DNA technique (r-UTM) (receptor) (chain): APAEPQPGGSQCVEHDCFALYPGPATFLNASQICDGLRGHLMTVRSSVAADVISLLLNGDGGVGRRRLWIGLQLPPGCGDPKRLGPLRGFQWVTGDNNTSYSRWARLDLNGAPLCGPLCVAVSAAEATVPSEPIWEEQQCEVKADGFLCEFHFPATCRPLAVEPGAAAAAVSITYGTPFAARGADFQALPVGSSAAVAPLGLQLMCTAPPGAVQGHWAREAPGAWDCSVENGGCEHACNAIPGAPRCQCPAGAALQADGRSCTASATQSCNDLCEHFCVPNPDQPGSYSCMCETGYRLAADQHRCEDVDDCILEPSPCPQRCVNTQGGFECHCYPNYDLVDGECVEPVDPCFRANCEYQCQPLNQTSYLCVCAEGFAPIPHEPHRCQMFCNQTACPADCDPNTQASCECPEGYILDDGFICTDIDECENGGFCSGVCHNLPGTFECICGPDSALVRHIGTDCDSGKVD

“bovine thrombin (from UniProt P00735) (enzyme)” registered a clotting time, control, ATIII (-) in assay [1] of 43.3 s. The same substance returned a Coagulation time (sec), control in assay [2] of 28.1 s.
“human urine derived thrombin-binding substance obtained using a recombinant DNA technique (r-UTM) (receptor)”: the IC50 (time required for the coagulation) in assay [3] came out at 80 nM. Also, in assay [4], the clotting time, ATIII (+) (human antithrombin III 250 µg/ml) was 80.8 s and the clotting time, ATIII (-) stood at 61.8 s. The substance also displayed a Coagulation time in assay [5] of 29.6 s.
In assay [4], “human antithrombin III (from UniProt P01008)” came in with a clotting time, control, ATIII (+) of 49.5 s.
